B1: Tyrosine-protein kinase BTK, residues 215 to 273; numbered along this chain, Q06187 (parent)
chain: ELKKVVALYDYMPMNANDLQLRKGDEYFILEESNLPWWRARDKNGQEGYIPSNYVTEAE

Variants of: B1
Assay: abundance fitness (aPCA) (normalised: wild type 0, dead -1); higher = more abundant; growth selection in yeast, the domain comes from the species named
Conditions: Homo sapiens

Abundance fitness of substitutions, site by site:
M14: R 0.051 | G 0.02 | P -0.002 | Y -0.15
E31: A -0.008 | C -0.034 | G -0.051 | H -0.054 | M 0.026 | I -0.117 | F -0.005 | D -0.058 | N -0.058 | L -0.122
Q20: C -0.06 | D -0.168 | W -0.131 | S -0.007 | R -0.013 | I -0.084 | N -0.152 | L -0.055 | Y -0.037 | T -0.043 | H -0.075 | M -0.073 | V -0.082 | F -0.2 | A -0.007 | P -0.037 | G -0.001 | E -0.001 | K -0.075
I29: S -0.544 | R -0.436 | T -0.212 | W -0.855 | H -0.99 | L -0.008 | D -0.704 | V -0.002 | Q -0.624 | F -0.799 | K -0.241 | Y -1.02 | E -0.58 | G -0.847 | N -0.698 | A -0.194 | M -0.229 | P -0.483
K23: T -0.112 | E -0.058 | D -0.522 | I -0.207 | G -0.143 | W -0.372 | L -0.181 | V -0.072 | M -0.169 | R -0.056 | P -0.371 | H -0.019 | A -0.024 | C -0.037 | Q -0.077
R22: S -0.003 | P -0.768 | L -0.002 | Q -0.011 | K 0.049 | V 0.031 | N -0.012 | G -0.257 | A -0.032 | W -0.099 | H -0.08 | Y 0 | I -0.026 | F -0.036 | E -0.041 | T -0.037 | C -0.004
Y27: H -0.754 | G -0.745 | V -0.022 | S -0.69 | P -0.624 | A -0.339 | K -0.771 | N -0.537 | R -0.772 | M -0.362 | D -0.692 | E -0.646 | F -0.157 | L -0.053 | W -0.96 | C -0.299 | I -0.054 | T -0.698
D25: A -0.046 | G -0.073 | K -0.067 | N -0.074 | Y -0.101 | S -0.071 | Q -0.013 | L -0.061 | M -0.005 | P -1.15 | H -0.01 | R -0.068 | F -0.107 | E 0.019
N17: P -0.123 | M -0.017 | D -0.011 | A -0.041 | E -0.024 | L -0.019 | F -0.029 | K -0.052 | W -0.115 | Y -0.088 | C -0.01 | R -0.001 | S -0.002 | T 0.002 | H 0.03 | V -0.068 | Q 0.033 | I -0.187
L21: S -0.811 | F -1.01 | C -0.349 | H -0.761 | K -0.892 | D -1.05 | E -0.793 | W -1.09 | G -1.06 | Q -0.754 | A -0.671 | V -0.079 | M -0.079 | N -0.806 | T -0.523 | P -0.724 | R -0.998 | Y -1.09
N15: Y -0.23 | A -0.077 | V 0.052 | F -0.176 | M -0.03 | R 0.026 | D -0.018 | S 0.059 | I -0.079 | P -0.442 | L 0.004 | E -0.011 | W -0.14 | H -0.048 | T 0.089 | G 0.065

Reference: the Human Domainome abundance scans (Beltran et al. 2025)
